The values below come from US20250376539A1 (KIRA PHARMACEUTICALS SUZHOU, published 2025).

Positions count from the first letter of the chain named.

The target in assay [1] is T1, recombinant human complement C2 (NP_000054.2), C-terminal 6His-tag, made in house (CHO cell expression) (human, UniProt P06681 21-752).
T1 construct: a linker before the tag is not described; also called human C2; Human C2
T1 sequence: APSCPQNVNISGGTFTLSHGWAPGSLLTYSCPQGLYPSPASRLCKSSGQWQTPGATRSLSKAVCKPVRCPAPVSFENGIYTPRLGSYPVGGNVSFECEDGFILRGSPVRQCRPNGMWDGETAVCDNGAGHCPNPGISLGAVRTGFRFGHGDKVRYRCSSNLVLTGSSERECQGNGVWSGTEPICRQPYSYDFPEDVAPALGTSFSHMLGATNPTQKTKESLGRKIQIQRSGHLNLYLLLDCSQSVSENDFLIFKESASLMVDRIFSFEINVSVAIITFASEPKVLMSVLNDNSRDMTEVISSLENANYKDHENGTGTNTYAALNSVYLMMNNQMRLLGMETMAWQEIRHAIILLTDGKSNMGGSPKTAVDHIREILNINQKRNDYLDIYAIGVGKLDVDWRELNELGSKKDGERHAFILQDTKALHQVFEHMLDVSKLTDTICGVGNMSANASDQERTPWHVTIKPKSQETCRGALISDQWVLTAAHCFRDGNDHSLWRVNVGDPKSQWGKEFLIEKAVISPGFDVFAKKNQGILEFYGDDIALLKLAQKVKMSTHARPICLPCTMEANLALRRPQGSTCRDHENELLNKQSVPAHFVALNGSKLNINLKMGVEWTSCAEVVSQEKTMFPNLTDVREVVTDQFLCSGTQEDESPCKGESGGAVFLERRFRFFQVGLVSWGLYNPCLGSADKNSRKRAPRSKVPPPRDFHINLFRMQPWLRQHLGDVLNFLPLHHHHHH
Kind of assay: ELISA. A general note: An ELISA detects its analyte on a solid surface through an enzyme-linked reagent.

The target in assay [2] is T2, recombinant cyno C2a, C-terminal 6His-tag, made in house (CHO cell expression) (cynomolgus monkey, UniProt P06681 244-752 (human entry)).
T2 chain: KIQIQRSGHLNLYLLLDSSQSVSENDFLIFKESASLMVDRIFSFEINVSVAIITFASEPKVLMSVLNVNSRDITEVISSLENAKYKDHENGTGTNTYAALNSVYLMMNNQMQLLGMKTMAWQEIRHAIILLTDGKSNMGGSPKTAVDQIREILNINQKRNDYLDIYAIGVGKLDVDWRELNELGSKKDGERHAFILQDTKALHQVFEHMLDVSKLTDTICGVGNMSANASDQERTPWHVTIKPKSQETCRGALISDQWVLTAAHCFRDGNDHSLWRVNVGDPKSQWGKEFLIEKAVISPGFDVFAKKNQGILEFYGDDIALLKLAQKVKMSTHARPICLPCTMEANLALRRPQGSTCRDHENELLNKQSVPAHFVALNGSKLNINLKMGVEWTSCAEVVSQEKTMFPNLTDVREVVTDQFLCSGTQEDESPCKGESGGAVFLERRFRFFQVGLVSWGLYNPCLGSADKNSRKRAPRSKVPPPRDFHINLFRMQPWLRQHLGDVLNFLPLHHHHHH
Kind of assay: ELISA.

In assay [3] the target is T3, recombinant human C2a, C-terminal 6His-tag, made in house (CHO cell expression) (human, UniProt P06681 244-752).
T3 sequence: T2 chain with S18C, V68D, I73M, K84N, Q112R, K117E, Q148H
Kind of assay: ELISA.

The target in assay [4] is T4, recombinant cynomolgus (cyno) complement C2 (XP_005553508.1), C-terminal 6His-tag, made in house (CHO cell … (cynomolgus monkey (Macaca fascicularis), UniProt P06681 21-752 (human entry))).
T4 construct: also called cyno C2; Cyno C2
T4 chain: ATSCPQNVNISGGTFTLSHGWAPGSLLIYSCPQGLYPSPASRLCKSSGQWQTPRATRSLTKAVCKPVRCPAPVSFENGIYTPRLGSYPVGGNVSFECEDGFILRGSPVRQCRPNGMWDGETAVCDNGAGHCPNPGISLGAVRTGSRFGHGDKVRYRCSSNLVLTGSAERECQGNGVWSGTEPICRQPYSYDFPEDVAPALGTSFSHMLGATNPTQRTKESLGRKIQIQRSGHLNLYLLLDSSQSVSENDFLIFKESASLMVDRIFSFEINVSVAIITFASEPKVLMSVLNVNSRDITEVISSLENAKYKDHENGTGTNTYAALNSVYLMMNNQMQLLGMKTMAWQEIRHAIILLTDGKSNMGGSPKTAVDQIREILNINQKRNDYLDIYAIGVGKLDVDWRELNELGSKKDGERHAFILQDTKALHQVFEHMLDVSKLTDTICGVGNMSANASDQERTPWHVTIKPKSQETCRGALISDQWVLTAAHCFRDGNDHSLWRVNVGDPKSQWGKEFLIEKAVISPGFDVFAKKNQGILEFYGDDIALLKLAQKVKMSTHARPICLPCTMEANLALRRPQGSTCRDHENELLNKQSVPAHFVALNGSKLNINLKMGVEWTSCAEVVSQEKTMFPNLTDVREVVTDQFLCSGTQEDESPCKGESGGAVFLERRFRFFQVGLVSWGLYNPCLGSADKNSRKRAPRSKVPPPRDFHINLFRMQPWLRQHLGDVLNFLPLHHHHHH
Kind of assay: ELISA.

In assay [5] the target is T2, recombinant cyno C2a, C-terminal …. Kind of assay: ELISA on cyno C2a, OD450nm against log Ab conc. (nmol/L).
Assay [6] addresses T3, recombinant human C2a, C-terminal …. Kind of assay: ELISA on human C2a, OD450nm against log Ab conc. (nmol/L).
In assay [7] the target is T1, recombinant human complement C2 …. Kind of assay: drawn kinetic table; method and antigen not printed on the sheet, legend paragraph 101 says only anti-C2 antibodies; human C2 taken from the context of Examples 5 and 10.
For assay [8] the target is unchanged. Kind of assay: kinetic binding measurement, table 'Human C2 binding affinity' with sensorgrams below it (assay not named on the sheet); lot 20211215P05.
Assay [9] has the same target. Kind of assay: kinetic binding measurement, table 'Human C2 binding affinity' with sensorgrams below it (assay not named on the sheet); lot 20211228P03.

B1: anti-C2 antibody 139.14 (antibody, IgG4, V domains shown)
VH: QVQLRESGPGLMKPSETLSLTCTVSGGSVSSGVYYWTWIRQPPGKGLEWIGSMFYSGNADYNPSLKSRVTISVDTSKNQFSLRLNSVSAADMAVYYCARGYASGWSYYFDYWGQATLVTVSS
VL: SSELTQDPTVSVALGQTVRITCQGDSLRTYYASWYQQKPGQAPVLVLYGKNNRPSGIPDRFSGSSSGNTASLTITGAQAEDEADYYCNSRYSSGTHVVFGGGTKLTVL
notes: Recombinant
In general, EC50 refers to the concentration that produces a half-maximal response. Turning to B1, the 50% effective concentration (EC50) in assay [1] is 0.0599 nM; in assay [2], 0.208 nM; in [3], 0.131 nM; in [4], 0.115 nM.

B2: anti-C2 antibody 59.45 (antibody, IgG4, V domains shown)
VH: QLQLQESGPGLVKTSETLSLTCTVSGGSITSGVYYWGWIRQPPGKGLEWIGSIYHGGNTYNNPSLKSRVTIFIDTSKNQFSLKLSSVTAADTAVYYCAEGVSSGWSYYFDYWGQGTLVTVSS
VL: SSELTQDPAVSVALGQTVRITCQGDSLRRFYASWYQQKPGQAPVLVGYGKNNRPSGIPDRFSGSTSGNAASLTITGSQAEDEADYYCNSRDSSGDHLIFGGGTKLTVL
notes: Recombinant
For B2, the EC50 amounted to 0.054 nM in assay [1], 0.123 nM in [2], 0.124 nM in assay [3] and 0.263 nM in assay [4].

B3: anti-C2 antibody 83.16 (antibody, IgG4, V domains shown)
VH: QLQLQESGPGLVKSSETLSLTCTVSGGPISSSSYYWGWIRQPPGKGLEWIGTIYYSGRTYYNPSLKSRGTISVGTSKNQFSLKLSSVTAADTAVFYCAGGVGVTWDYWGQGTLVTVSS
VL: SYDLSQPLSVSVALGQTARITCGGNDIESKNVHWYQQRPGQAPVLVIYRNSNRPSGIPERFSGSNSGNTATLTISRGQGGDEADYYCQVWDSSTVIFGGGTKLTVL
notes: Recombinant
On to B3, for which the EC50 in assay [1] is 0.0408 nM; in assay [4], 0.0397 nM. Moreover, the binding result in assay [5] and in assay [6] was “no binding (tested: 100 nmol/L)” in each case.

B4: 3.2pHGL (3.2 pH construct derived from a human germline framework sequence) (antibody, V domains shown)
VH: EVQLLESGGGLVQPGGSLRLSCAASGFTFRHYAMSWVRQAPGKGLEWVSLISGSGASTHYADSVKGRFTISRDNSKNTLYLQMNSLRAEDTAVYYCAKDSLAVAGSEYFQHWGQGTLVTVSS
VL: SYVLTQPPSVSVAPGQTARITCGHNYFGGKSVHWYQQKPGQAPVLVVYDDSDRPSGIPERFSGSNSGNTATLTISRVEAGDEADYYCQVYDTSSDHWVFGGGTKLTVL
notes: also called germlined 3.2 pH
What is called Kd is the constant that tells how readily two partners part at equilibrium. What is called koff is the rate constant with which the complex falls apart. One may read the kon as the rate constant with which the complex forms. On to B4, for which, in [7], the Kd was found to be 0.138 nM, the off-rate (koff) is 4.05e-05 s⁻¹ and the on-rate (kon) turned out to be 294000 M⁻¹ s⁻¹.

B5: 3.2pHGL-IgG1-LALA-LS (3.2 pH-IgG1-LALA-LS derived from germline) (antibody, V domains shown)
VH: B4 VH
VL: SYVLTQPPSVSVAPGQTARITCGHNYFGGKSVHWYQQKPGQAPVLVVYDDSDRPSGIPERFSGSNSGNTATLTISRVEAGDEADYYCQVYDTSSDHWVFGGGTKLTVLG
notes: Heavy chain put together from the named parts
For B5, in assay [8], the Kd worked out at 0.149 nM, the koff stood at 4.58e-05 s⁻¹ and the kon was determined as 309000 M⁻¹ s⁻¹. In [9], the Kd stood at 0.101 nM, the off-rate (koff) turned out to be 3.33e-05 s⁻¹ and the kon worked out at 330000 M⁻¹ s⁻¹.

B6: anti-C2 antibody 39.4 (antibody, IgG4, V domains shown)
VH: B4 VH with R19S, A23T, R30S, L50V, H59F, K76E, L101I
VL: SYVLTQAPSVSVAPGQTARITCGGNNIGGKTVHWYQQKPGQAPMLVVYDDSDRPSGIPERFSGSKSGNMAILTISRVEAGDEADYYCQLYDIYSDHWVFGGGTKLTVL
notes: Recombinant
As for B6, the EC50 in assay [1] was determined as 0.0576 nM; in [4], 0.0869 nM. In addition, the binding result in assay [5] and in assay [6] was “no binding (tested: 100 nmol/L)” each time.
